Where two headings read alike, the source gives them in different places.
Assays:
[1] = biological target: T1, recombinant human ROR2-extracellular domain (ROR2-ECD) (human, UniProt Q01974 34-403); assay: kinetic exclusion assay (KinExA), soluble recombinant ROR2
T1 construct: also called recombinant ROR2-extracellular protein; recombinant ROR2 protein
Experimental: (§1) FIGS. 4A and 4B. Affinity measurement of binding of the 6E6 and 4G9 mAb to recombinant ROR2 protein. (FIG. 4A) Analysis was performed using a KinExA 3200 instrument. The proportion of anti-human ROR2 mAb bound to particles coated with ROR2 protein (y-axis) in the presence of increasing molar (M) concentration of soluble ROR2 competitor (x-axis) is shown for 6E6 (upper panel) and 4G9 (lower panel). (FIG. 4B) Illustration of the 95% confidence interval for the measured Kd of 6E6 (upper panel) and 4G9 (lower panel) for binding to human ROR2.
(§2) Applicants assessed binding specificity and relative affinities of each mAb using recombinant ROR2-extracellular protein in an ELISA assay, in which binding was measured using decreasing/limiting amounts of ROR2 protein and assessed in combination with decreasing concentrations of each of the four mAb (FIG. 3). Higher absorbance values for 6E6 and 4G9 at both lower ROR2 protein amounts and lower concentrations of mAb, indicate these mAb have higher affinities compared to 5C11 and 5G3. Equilibrium dissociation constants (Kd) were measured in a kinetic exclusion assay (KinExA) that measures the equilibrium binding affinity and kinetics between unmodified molecules in solution.

h1-160 aa = biological target: T2, h1-160 aa (human;mouse, UniProt Q01974;Q9Z138); assay: dot blot; recombinant protein on nylon membrane, probed with the mAb, HRP anti-mouse IgG
T2 construct: N-terminal part of the extracellular portion;C-terminal part of the extracellular portion; also called chimeric human/mouse recombinant ROR2 extracellular construct with the first 160 amino acids of human ROR2
Description: (§3) FIG. 5. Identification of the binding regions of anti-human ROR2 mAb by assessment of binding to chimeric […] recombinant ROR2 protein. […] Each recombinant protein was transferred onto nylon membrane, probed with the 6E6, 4G9, 5C11, 5G3 or anti-his tag mAb, and detected with an anti-mouse IgG antibody conjugated with horse radish peroxidase, as shown in the right panel. The […] and 5C11 mAbs bind to ROR2 recombinant proteins that contain the human kringle domain.
(§4) Applicants developed a series recombinant human/mouse hybrid proteins that isolate specific domains of the human ROR2 protein. These recombinant proteins were used to identify the specific binding domains that each of the four mAb target (FIG. 5). The 6E6 and 5C11 mAb bind to the Kringle domain of human, but not mouse, ROR2. […] None of the four mAb bind mouse ROR2.

h1-111 aa = biological target: T3, h1-111 aa (human;mouse, UniProt Q01974;Q9Z138); assay: as above
T3 construct: N-terminal part of the extracellular portion;C-terminal part of the extracellular portion; A tag is not described, but the blot was also probed with an anti-his tag mAb
Description: as §3, §4

[2] = biological target: T4, mouse ROR2 (recombinant extracellular portion) (mouse, UniProt Q9Z138 34-403); assay: as above
Description: as §3, §4

hCRD = biological target: T5, hCRD (mouse;human, UniProt Q9Z138;Q01974); assay: as above
T5 construct: N-terminal part of the extracellular portion;cysteine rich domain (CRD);C-terminal part of the extracellular portion; also called chimeric human/mouse recombinant ROR2 extracellular construct that contains the cysteine rich domain of human ROR2
Description: as §3, §4

[3] = biological target: T1, recombinant human ROR2-extracellular …; assay: kinetic exclusion assay (KinExA), soluble recombinant ROR2; remark: listed apart in the source
Experimental: as §1, §2

[4] = biological target: T1, recombinant human ROR2-extracellular …; assay: KinExA 3200 kinetic exclusion assay; free mAb captured on particles coated with ROR2 protein, soluble ROR2 as titrant
Experimental: as §1, §2

[5] = biological target: T6, recombinant human ROR2 with histidine 349 replaced by the arginine of mouse ROR2 (human, UniProt Q01974 34-403); assay: dot blot; recombinant protein on nylon membrane, probed with the mAb, HRP anti-mouse IgG
T6 construct: also called human ROR2 H349R

[6] = biological target: T7, recombinant human ROR2 with aspartic acid 354 replaced by the glutamic acid of mouse ROR2 (human, UniProt Q01974 34-403); assay: as above
T7 construct: also called human ROR2 D354E

[7] = biological target: T1, recombinant human ROR2-extracellular …; assay: ELISA
[8] = biological target: T8, human ROR2 expressed on cells (human, UniProt Q01974 34-943); assay: flow cytometry on ROR2-expressing cells
T8 construct: Full-length human ROR2 entry; endogenous on cell lines and PDX cells, transfected in MCF7-ROR2; also called ROR2 surface antigen; human ROR2 on K562, BR1936 PDX, MCF7-ROR2 and other ROR2-expressing cell lines

hKringle [9] = biological target: T9, hKringle (mouse;human, UniProt Q9Z138;Q01974); assay: dot blot; recombinant protein on nylon membrane, probed with the mAb, HRP anti-mouse IgG
T9 construct: N-terminal part of the extracellular portion;C-terminal part of the extracellular portion with the Kringle domain; also called chimeric human/mouse recombinant ROR2 extracellular construct that contains the Kringle domain of human ROR2
Description: as §3, §4

[10] = biological target: T10, recombinant human ROR2 with methionine 386 replaced by the valine of mouse ROR2 (human, UniProt Q01974 34-403); assay: as above
T10 construct: also called human ROR2 M386V

[11] = biological target: T4, mouse ROR2 (recombinant extracellular …); assay: as above; remark: listed apart in the source
[12] = biological target: T1, recombinant human ROR2-extracellular …; assay: KinExA 3200 kinetic exclusion assay; free scFv captured on particles coated with recombinant ROR2 protein, soluble ROR2 as titrant
Experimental: FIGS. 12A and 12B. Affinity measurement and binding specificity of the 6E6 single chain variable fragment (scFv) for human ROR2. Analysis was performed using a KinExA 3200 instrument. (FIG. 12A) The proportion of the 6E6 anti-human ROR2 scFv bound to particles coated with recombinant ROR2 protein (y-axis) in the presence of increasing molar (M) concentration of soluble ROR2 competitor (x-axis) is shown. (FIG. 12B) Illustration of the 95% confidence interval for the measured Kd of 6E6 scFv for binding to recombinant human ROR2. (FIG. 12C) Binding of the 6E6 scFv to ROR2 was assessed by flow cytometric staining and analysis of K562 (ROR2 positive) and JEKO (ROR2 negative) cells. Cells were stained on ice for 20 minutes with ~1 ug/ml of 6E6 anti-human ROR2 scfv, washed, stained for an additional 20 minutes on ice with phycoerythrin (PE)-conjugated anti-human IgG1 antibody, washed and analyzed by flow cytometry. Shaded histograms depict the relative fluorescence intensity (x axis) of viable cells, as determined by light scatter characteristics, stained with 6E6 scfv compared to viable cells stained with the anti-human IgG1-PE antibody only (open histograms).

hKringle [13] = biological target: T9, hKringle; assay: dot blot; recombinant protein on nylon membrane, probed with the mAb, HRP anti-mouse IgG; remark: listed apart in the source

T4 sequence (Q9Z138 other isoform, or with tags, fused parts or gaps limits assumed): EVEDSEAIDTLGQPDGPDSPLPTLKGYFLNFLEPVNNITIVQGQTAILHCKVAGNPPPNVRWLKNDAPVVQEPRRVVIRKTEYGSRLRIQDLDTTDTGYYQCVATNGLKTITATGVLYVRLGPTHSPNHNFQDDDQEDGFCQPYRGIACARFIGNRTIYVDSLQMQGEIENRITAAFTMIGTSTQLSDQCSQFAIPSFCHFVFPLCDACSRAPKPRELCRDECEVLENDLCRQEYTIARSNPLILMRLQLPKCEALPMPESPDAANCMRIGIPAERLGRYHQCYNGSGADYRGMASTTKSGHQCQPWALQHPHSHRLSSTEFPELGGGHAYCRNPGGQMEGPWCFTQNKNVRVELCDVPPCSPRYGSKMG
T1 sequence (Q01974 34-403 limits assumed): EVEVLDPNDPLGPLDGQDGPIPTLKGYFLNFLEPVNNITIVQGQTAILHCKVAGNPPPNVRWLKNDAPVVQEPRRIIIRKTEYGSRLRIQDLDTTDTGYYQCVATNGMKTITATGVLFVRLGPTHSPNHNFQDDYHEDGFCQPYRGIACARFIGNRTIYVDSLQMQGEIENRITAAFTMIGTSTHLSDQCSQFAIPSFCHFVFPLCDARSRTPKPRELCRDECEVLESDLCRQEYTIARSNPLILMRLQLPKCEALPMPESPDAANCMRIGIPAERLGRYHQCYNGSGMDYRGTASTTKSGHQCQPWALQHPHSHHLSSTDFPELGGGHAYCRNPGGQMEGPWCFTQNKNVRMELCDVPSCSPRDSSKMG
T5 sequence (Q9Z138 other isoform, or with tags, fused parts or gaps limits assumed): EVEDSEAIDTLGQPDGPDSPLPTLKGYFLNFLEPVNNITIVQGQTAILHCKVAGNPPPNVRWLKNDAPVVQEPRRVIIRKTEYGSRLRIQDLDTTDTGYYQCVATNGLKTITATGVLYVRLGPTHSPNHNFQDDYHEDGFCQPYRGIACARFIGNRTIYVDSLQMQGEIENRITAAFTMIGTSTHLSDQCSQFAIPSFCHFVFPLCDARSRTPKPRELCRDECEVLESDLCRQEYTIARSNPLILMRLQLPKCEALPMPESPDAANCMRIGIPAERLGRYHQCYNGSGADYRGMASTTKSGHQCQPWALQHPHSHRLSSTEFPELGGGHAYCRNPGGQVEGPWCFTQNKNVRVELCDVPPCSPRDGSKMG
T2 sequence (Q01974 other isoform, or with tags, fused parts or gaps limits assumed): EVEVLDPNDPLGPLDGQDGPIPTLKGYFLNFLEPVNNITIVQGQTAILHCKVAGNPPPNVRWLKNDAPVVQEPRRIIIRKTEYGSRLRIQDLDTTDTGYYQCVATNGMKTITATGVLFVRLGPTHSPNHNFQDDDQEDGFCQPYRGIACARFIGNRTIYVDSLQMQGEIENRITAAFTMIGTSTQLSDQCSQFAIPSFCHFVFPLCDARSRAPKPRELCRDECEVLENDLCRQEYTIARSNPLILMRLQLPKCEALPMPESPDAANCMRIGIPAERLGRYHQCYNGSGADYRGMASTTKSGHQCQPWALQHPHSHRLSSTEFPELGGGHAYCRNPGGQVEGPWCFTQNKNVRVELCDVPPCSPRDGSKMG
T9 sequence (Q9Z138 other isoform, or with tags, fused parts or gaps limits assumed): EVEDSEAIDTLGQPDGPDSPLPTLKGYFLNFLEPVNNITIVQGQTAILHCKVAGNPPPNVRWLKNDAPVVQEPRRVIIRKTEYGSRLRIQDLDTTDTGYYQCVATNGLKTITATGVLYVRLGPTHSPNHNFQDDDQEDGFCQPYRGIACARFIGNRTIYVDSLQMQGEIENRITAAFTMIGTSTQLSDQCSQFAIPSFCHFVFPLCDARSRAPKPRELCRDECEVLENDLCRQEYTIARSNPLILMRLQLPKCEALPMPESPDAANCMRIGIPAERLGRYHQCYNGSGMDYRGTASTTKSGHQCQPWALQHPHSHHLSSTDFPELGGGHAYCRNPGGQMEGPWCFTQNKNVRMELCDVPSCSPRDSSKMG
T6 sequence (Q01974 34-403 H349R limits assumed): as the sequence (Q01974 34-403 limits assumed) above, with H316R counted along it
T3 sequence (Q01974 other isoform, or with tags, fused parts or gaps limits assumed): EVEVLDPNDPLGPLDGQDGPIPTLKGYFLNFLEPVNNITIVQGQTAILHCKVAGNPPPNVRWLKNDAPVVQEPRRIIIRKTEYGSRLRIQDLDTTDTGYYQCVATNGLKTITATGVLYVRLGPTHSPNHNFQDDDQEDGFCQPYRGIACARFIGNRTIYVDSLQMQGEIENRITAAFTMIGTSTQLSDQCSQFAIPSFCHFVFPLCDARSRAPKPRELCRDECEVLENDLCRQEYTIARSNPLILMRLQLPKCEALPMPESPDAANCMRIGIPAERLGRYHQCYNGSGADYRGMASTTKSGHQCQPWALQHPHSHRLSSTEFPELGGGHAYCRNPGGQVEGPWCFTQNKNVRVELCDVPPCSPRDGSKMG
T7 sequence (Q01974 34-403 D354E limits assumed): as the sequence (Q01974 34-403 limits assumed) above, with D321E counted along it
T10 sequence (Q01974 other isoform, or with tags, fused parts or gaps limits assumed): as the sequence (Q01974 34-403 limits assumed) above, with M353V counted along it
T8 sequence (Q01974 34-943 limits assumed): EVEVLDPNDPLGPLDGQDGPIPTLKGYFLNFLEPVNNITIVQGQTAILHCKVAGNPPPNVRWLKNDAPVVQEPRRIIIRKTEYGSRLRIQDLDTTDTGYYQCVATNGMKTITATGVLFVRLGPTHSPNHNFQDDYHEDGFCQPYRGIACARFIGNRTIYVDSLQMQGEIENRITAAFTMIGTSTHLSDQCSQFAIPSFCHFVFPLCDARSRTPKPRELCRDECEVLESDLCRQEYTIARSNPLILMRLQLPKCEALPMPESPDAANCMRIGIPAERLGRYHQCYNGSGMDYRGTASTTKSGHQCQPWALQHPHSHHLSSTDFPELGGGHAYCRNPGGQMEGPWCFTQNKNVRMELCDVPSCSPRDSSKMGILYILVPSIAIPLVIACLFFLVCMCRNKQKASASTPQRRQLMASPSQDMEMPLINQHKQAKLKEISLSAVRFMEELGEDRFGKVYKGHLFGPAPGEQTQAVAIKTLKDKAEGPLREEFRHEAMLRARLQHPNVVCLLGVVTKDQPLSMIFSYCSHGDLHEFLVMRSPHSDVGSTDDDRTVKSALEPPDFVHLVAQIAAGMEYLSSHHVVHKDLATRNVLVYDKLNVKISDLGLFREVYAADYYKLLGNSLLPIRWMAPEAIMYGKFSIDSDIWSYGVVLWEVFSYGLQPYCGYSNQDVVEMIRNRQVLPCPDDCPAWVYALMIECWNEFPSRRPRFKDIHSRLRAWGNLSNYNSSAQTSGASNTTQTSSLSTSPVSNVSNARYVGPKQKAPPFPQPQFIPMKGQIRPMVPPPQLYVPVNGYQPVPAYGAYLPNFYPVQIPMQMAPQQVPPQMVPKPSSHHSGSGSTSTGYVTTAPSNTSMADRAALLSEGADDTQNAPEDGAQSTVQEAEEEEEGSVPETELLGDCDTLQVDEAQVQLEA

Kd [1] [nM]	binding result (h1-160 aa)	binding result (h1-111 aa)	binding result [2]	binding result (hCRD)	Kd [3] [nM]	Kd [4] [nM]	binding result [5]	binding result [6]	binding result [11]	Binder	also measured
< 0.1	no binding	no binding	no binding	no binding	~0.1	0.0556	no binding	no binding	–	6E6 anti-human ROR2 monoclonal antibody (antibody, IgG1, V domains shown, Used conjugated with Alexa647 in flow cytometry and with pHrodo in the internalisation assay; also called 6E6 mAb) VH: EVQLVESGGDLVKPGGSLKLSCAASGFTFSNYGMSWVRQTPDKRLEWVATISSGGGYTHYVDSVKGRFTISRDNANHILYLQMSSLNSEDTAMYYCARHPRDFSYAMDYWGQGTSVTVSS VL: DIVMTQSHKFMSTSIGDRVSITCKASQDVGHYVAWYQQKPGQSPKLLIYWASTRHTGVPDRFTGSGSGTDFTLTISNVQSEDLADYFCQQYNIYPWTFGGGSKLAIK	–
–	–	–	–	–	–	–	–	–	–	4G9 single chain variable fragment (scFv) (scFv, scFv fused to CH2-CH3 of human IgG1; the leader is left out here; also called 4G9 scFv) scFv: DIVMTQAAPSVPVTPGESVSISCRSSKSLLHSNGNTYLYWFLQRPGQSPQLLIYRMSNLASGVPDRFSGSGSGTAFTLRISRVEAEDVGVYYCMQHLEYPLTVGAGTKLELKGSTSGSGKPGSGEGSTKGQVQLQQSGAELVRPGASVKLSCKALGYTFTDYEMHWVKQTPVHGLEWIGAIHPGSGGTAYNQKFKGKATLTADKSSSTAYMELSRLTSEDSAVYYCTRRRPRFYGMDYWGQGTSVTVSSEFLFPPKPKDTLMISRTPEVTCVVVDVSHEDPEVKFNWYVDGVEVHNAKTKPREEQYNSTYRVVSVLTVLHQDWLNGKEYKCKVSNKALPAPIEKTISKAKGQPREPQVYTLPPSREEMTKNQVSLTCLVKGFYPSDIAVEWESNGQPENNYKTTPPVLDSDGSFFLYSKLTVDESRWQQGNVFSCSVMHEALHNHYTQKSLSLSPGK	binding result [7]: binds; binding result [8]: binds
> 40	–	–	no binding	no binding	–	–	–	–	–	5G3 anti-human ROR2 monoclonal antibody (antibody, IgG2a, V domains shown, also called 5G3 mAb) VH: EVQLVESGGGLVQPKGSLKLSCAASGFTFNTYAMNWVRQAPGKGLEWVARIRSKSNNYATYYADSVKDRFTISRDDSQSMLHLQMNNLKTEDTAMYYCVRHGSSLYYAMDYWGQGTSVTVSS VL: DIQMTQSPSSLSASLGERVSLTCRASQEISGYLGWLQQKPDGTIKRLIYAASTLDSGVPKRFSGSRSGSAYSLTISSLESEDFADYYCLQYASYPYTFGGGTKLEIK	binding result (hKringle [9]): no binding
> 40	no binding	no binding	–	no binding	–	–	no binding	no binding	no binding	5C11 anti-human ROR2 monoclonal antibody (antibody, IgG1, V domains shown, also called 5C11 mAb) VH: EVQLVESGGDLVKPGGSLKLSCAASGFTFSNYGMSWVRQTPDKRLEWVATISSGGGSTYYPDSVKGRFTISRDNAKNSLYLQMSSLKSEDTAMYYCARHPYDYGYYFDYWGQGTTLTVSS VL: DILLTQSPDILSVSPGERVSFSCRASQSIGTSIHWYQQRTNGSPRLLIKYASESISGIPSRFSGSGSGTDFTLSINSVESEDIADYYCQQSDSWPFPFGSGTKLEKK	binding result [10]: no binding
–	–	–	–	–	–	–	–	–	–	6E6 single chain variable fragment (scFv) (scFv, scFv fused to CH2-CH3 of human IgG1; the leader is left out here; also called 6E6 scFv; 6E6 anti-human ROR2 scFv) scFv: DIVMTQSHKFMSTSIGDRVSITCKASQDVGHYVAWYQQKPGQSPKLLIYWASTRHTGVPDRFTGSGSGTDFTLTISNVQSEDLADYFCQQYNIYPWTFGGGSKLAIKGSTSGSGKPGSGEGSTKGEVQLVESGGDLVKPGGSLKLSCAASGFTFSNYGMSWVRQTPDKRLEWVATISSGGGYTHYVDSVKGRFTISRDNANHILYLQMSSLNSEDTAMYYCARHPRDFSYAMDYWGQGTSVTVSSEFLFPPKPKDTLMISRTPEVTCVVVDVSHEDPEVKFNWYVDGVEVHNAKTKPREEQYNSTYRVVSVLTVLHQDWLNGKEYKCKVSNKALPAPIEKTISKAKGQPREPQVYTLPPSREEMTKNQVSLTCLVKGFYPSDIAVEWESNGQPENNYKTTPPVLDSDGSFFLYSKLTVDESRWQQGNVFSCSVMHEALHNHYTQKSLSLSPGK	Kd [12]: 0.0737 nM
~1.9	–	–	–	no binding	~2	1.9	–	–	no binding	4G9 anti-human ROR2 monoclonal antibody (antibody, IgG2a, V domains shown, Used conjugated with Alexa647 in flow cytometry and with pHrodo in the internalisation assay; also called 4G9 mAb) VH: QVQLQQSGAELVRPGASVKLSCKALGYTFTDYEMHWVKQTPVHGLEWIGAIHPGSGGTAYNQKFKGKATLTADKSSSTAYMELSRLTSEDSAVYYCTRRRPRFYGMDYWGQGTSVTVSS VL: DIVMTQAAPSVPVTPGESVSISCRSSKSLLHSNGNTYLYWFLQRPGQSPQLLIYRMSNLASGVPDRFSGSGSGTAFTLRISRVEAEDVGVYYCMQHLEYPLTVGAGTKLELK	binding result (hKringle [13]): no binding

From US20230192846A1 (University of California, published 2023)
